Values of other authors in patent publication US20230127008A1, “STAT3-TARGETED BASE EDITOR THERAPEUTICS FOR THE TREATMENT OF MELANOMA AND OTHER CANCERS” (The Broad Institute, Inc., priority 2020, published 2023).

Tested on: DNA
Conditions: SpCas9 mutation relative to SEQ ID NO: 74; UniProtKB-Q99ZW2 entry

B1: 175-307 deletion: SpCas9 mutation relative to canonical SpCas9, SEQ ID NO: 74 (protein)
chain: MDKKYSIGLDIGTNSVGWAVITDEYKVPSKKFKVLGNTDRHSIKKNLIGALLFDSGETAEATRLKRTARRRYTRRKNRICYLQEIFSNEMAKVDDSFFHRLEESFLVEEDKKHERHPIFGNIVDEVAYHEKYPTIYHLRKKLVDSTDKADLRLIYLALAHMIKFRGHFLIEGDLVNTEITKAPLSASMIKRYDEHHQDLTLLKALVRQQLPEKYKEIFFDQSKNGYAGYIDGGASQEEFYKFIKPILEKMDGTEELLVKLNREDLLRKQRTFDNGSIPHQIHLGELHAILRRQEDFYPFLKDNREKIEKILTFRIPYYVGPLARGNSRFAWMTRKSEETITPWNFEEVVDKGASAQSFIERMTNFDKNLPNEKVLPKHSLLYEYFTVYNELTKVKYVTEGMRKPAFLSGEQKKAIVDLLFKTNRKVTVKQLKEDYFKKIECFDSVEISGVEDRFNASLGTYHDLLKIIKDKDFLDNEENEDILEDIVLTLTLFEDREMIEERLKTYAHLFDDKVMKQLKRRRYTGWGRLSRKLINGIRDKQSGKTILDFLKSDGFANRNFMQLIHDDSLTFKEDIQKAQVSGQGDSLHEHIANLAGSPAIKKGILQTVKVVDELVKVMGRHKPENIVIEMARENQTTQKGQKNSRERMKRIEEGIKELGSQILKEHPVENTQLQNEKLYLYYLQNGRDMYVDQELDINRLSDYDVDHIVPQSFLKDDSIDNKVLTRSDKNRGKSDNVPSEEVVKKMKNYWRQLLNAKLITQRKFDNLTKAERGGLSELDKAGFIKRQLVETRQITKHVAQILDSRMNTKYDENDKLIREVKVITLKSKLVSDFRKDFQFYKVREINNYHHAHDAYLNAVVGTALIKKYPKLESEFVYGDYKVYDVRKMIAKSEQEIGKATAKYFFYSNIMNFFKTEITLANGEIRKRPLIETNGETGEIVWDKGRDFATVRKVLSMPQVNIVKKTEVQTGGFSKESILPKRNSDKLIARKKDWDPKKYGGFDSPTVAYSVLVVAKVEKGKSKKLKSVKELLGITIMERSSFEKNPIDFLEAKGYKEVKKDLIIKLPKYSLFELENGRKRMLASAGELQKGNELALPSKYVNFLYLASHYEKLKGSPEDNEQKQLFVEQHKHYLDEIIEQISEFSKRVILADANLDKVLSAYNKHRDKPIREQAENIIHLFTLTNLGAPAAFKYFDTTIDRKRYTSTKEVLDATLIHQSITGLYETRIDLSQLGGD
modifications: Streptococcus pyogenes
- decreased DNA cleavage: About 50% decreased DNA cleavage
